# The DeepSol protein solubility set
# Assay: soluble on expression in E. coli; label from the status in PepcDB or PDB records
row,Sequence,soluble on expression in E. coli
1,MTQQLVKKGQQISLKIKRLGINGEGIGYYKKLIIFVPGALPKEEVTATITNVTPKFAEGTLQSVKKAAKDRVVPPCPVYETCGGCQLQHLAYKAQLDFKKDLLKQALNKFKPANYQNYELRKTIGMDNPWNYRNKAQFQLRQIDGQVEAGLYQADSHQLVPIDNCLVQQPATTKVMNTLVDLLNDFQLPIYDERKNSGIFRTLMVRVGIQTGEVQVVFITQSQKFPQKEKMVRAINEQLPEVVSIMQNVQNKKTSLVMGDDTLHLWGKESIEEHINDVVFDLSPRAFFQLNPEQTEVLYNEGIKALDLQPNETVVDAYCGVGTIGLSLAKQAHQVRGMDTIPAAIDDARFNAKRLGVTNTHYAVGTAEDLLPKWFKEGFKPDAIVVDPPRTGLDRKLLTALLKQPPKKMVYISCNVSTLARDLVQLAKVYQVDYLQSVDMFPQTARCEVVVKLTRK,not soluble
2,MGDGAVKQGFLYLQQQQTFGKKWRRFGASLYGGSDCALARLELQEGPEKPRRCEAARKVIRLSDCLRVAEAGGEASSPRDTSAFFLETKERLYLLAAPAAERGDWVQAICLLAF,soluble
3,MSTITKEWLLKTIAELEEERDATPGAVNEDAAMALAAMKLALASLEAEPVAWLLSGGGAKNNVSFDSGNAYAAQLREVTPLYTAPPAPVSVPAAMEIDDDFDSAFEHGKAVGWNAYRAAMLQAEPVSNSDELPLDYLQGHKDGLEWAAQLAEANHPQTGDWLYDDQIELARAIRKGPDMPTVQGGNSPVIPDGWVMVPVELTPDMRAAWDSAPYTDDDDNDMQAAYRAMIAVAPQWKVK,not soluble
4,MYLVCGEALFDVFSLESAARSNELGFTAIAGGSPFNVAVGLRRLGVEAALFGGLSSDYLGARLRRVLEEEGVDCGFLVPSDAPTTLAMVGLDASGSAQYQFRGEGCADRQVRLEHLPTLDGRIRGLHVGSYTLVVTPVADTLLALVRRESGRRLVSLDPNVRLDPQPDIDLWRRRVEAFASHAHLIKASEEDLALLYPGRDPGEVARGWLNPRCRLVFVTHGGAGASVHCTHGSWSRPADTALPLRDTVGAGDTFQAATLAYLRRLDADSPAGLAALSREAIDAMLAFAIRAAAVTCSRVGPDLPFAHEL,not soluble
5,SSLYRLFQSSKRPFASFSAPLVRFTNSRCVSAVLSRKETAPSSIYGNRVSRVSGFGALDIRSLNFSTKSSQINDAGSIDQTLMQSMELKIKEQLNAESVTVTDMSGDGRHVCINVVSSAFEGQSAVNRQRMVYKAIWEELQNVVHAVDQMTTKTPSEV,soluble
6,MGSDKIHHHHHHMKTIKGPAIFLAQFMSDVAPFNNLKNICDWAASLGYKGVQIPSWDVRCIDLQKAAESKTYCDEIKAVVHAAGLEITELTSHLQGQLVASHAAYDAAFDVFAPAAIHNNPKARAEWATQQLMYAAKASQNLGLTAHATFSGALLWHTMYPWPQRKAGSVEEGFTELAKRWLPILNAFDQAGVDLCYEIHPGEDLHDGITFERFLKATDNHSRAHILYDPSHFVLQQLNYLDYIDIYHEHIKMFHVKDAEFNPSGRAGVYGGYQDWIDRPGRFRSLGDGQVNFKAIFSKLTQYDFPGWAVLEWECCLKHPEDGAREGAAFIKNHIIRVADKAFDDFAG,not soluble
7,GMSSMQHIVELTSDLIRFPSMHSRPEQISRCAGFIMDWCAQNGIHAERMDHDGIPSVMVLPEKGRAGLLLMAHIDVVDAEDDLFVPRVENDRLYGRGANDDKYAVALGLVMFRDRLNALKAAGRSQKDMALGLLITGDEEIGGMNGAAKALPLIRADYVVALDGGNPQQVITKEKGIIDIKLTCTGKAAHGARPWMGVNAVDLLMEDYTRLKTLFAEENEDHWHRTVNLGRIRAGESTNKVPDVAEGWFNIRVTEHDDPGALIDKIRKTVSGTVSIVRTVPVFLAADSPYTERLLALSGATAGKAHGASDARYLGENGLTGVVWGAEGFNTLHSRDECLHIPSLQSIYDPLMQLAREMEEHAAV,soluble
8,AGTGVVSVQFNNGSSPASSNSIYARFKVTNTSGSPINLADLKLRYYYTQDADKPLTFWCDHAGYMSGSNYIDATSKVTGSFKAVSPAVTNADHYLEVALNSDAGSLPAGGSIEIQTRFARNDWSNFDQSNDWSYTAAGSYMDWQKISAFVGGTLAYGSTP,soluble
9,MDHGVVLLSDDQGLQWRQASSVPLSTPLTGVSFVDAKRGWAVGHWGAILITTDGGESWQVQRLATEEDRPLFAVHFFNARQGVAVGLWSLVLTTEDGGQTWSEQPLQAPPGAKRADLNLMGLFADSRGTLYATAEHGQVLHSEDQGKNWRYLDTGYEGTLWAGAVLADGRLLLGGQRGTLLQGSADGKGFHRVPTQSKGSVTCVAVAGSRVLAVGLDGLSVQSSDGGHSFQETQTADGLSLTAALFNAEGVPVLFSRRGVMPYQELEHHHHHH,not soluble
